Key:
[1] = acid pH; cited from earlier work
[2] = tested on: Streptozotocin induced diabetic Wistar or Sprague Dawley rats; assay: Modification of blood/serum glucose of diabetic rats; type: in vivo, rat; conditions: IV administration, FIG. 1
[3] = rat, in vivo, iv

Row | Substance | solubility [1] | duration of hypoglycemic effect [2] | reduction of blood glucose levels [2] | plasma insulin levels [3]
1 | Insulin Glargine | soluble at acid pH | – | – | –
2 | Insulin Lispro | – | short lived | rapid reduction of blood glucose levels | increased in accordance with the reduction in serum glucose levels but reduced rapidly
